According to patent US20170112792:

Columns and labels:
Erk1, P27361 = molecular target: T1, Erk1, P27361
T1 chain: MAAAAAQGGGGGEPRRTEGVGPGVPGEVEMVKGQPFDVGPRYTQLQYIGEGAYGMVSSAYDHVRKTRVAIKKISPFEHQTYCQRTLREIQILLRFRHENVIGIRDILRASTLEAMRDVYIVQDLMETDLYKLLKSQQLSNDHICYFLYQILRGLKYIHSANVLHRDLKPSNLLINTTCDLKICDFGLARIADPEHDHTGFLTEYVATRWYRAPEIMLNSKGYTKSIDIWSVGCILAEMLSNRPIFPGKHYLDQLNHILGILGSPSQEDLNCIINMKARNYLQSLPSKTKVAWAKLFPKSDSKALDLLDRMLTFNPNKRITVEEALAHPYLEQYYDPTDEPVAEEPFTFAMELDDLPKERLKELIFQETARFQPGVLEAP

Erk2, P28482, sequence (P28482 whole entry): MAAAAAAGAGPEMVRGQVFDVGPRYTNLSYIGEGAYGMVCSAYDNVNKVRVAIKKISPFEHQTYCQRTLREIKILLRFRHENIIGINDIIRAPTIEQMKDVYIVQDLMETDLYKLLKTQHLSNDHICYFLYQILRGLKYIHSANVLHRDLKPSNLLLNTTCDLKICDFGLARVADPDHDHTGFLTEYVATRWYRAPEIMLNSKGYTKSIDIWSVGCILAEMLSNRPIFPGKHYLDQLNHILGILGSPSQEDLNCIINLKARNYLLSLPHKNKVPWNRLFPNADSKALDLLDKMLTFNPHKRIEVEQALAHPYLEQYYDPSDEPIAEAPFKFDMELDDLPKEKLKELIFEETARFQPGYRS

B1: Flag-Rab2A (protein)
chain: MAYAYLFKYIIIGDTGVGKSCLLLQFTDKRFQPVHDLTIGVEFGARMITIDGKQIKLQIWDTAGQESFRSITRSYYRGAAGALLVYDITRRDTFNHLTTWLEDARQHSNSNMVIMLIGNKSDLESRREVKKEEGEAFAREHGLIFMETSAKTASNVEEAFINTAKEIYEKIQEGVFDINNEANGIKIGPQHAATNATHAGNQGGQQAGGGCC
Erk1/2 phosphorylation (Erk1, P27361): Flag-Rab2A expression restored Erk1/2 phosphorylation in a dose-dependent manner | Erk1/2 phosphorylation (Erk2, P28482): Flag-Rab2A expression restored Erk1/2 phosphorylation in a dose-dependent manner
